Measured values reported in US20220002431A1.

Target: CD20 on Raji cells (CD20-positive human Burkitt's lymphoma cells) (human) (UniProt P11836)
Experiment: cell-based or functional assay

Chain of CD20 on Raji cells (CD20-positive human Burkitt's lymphoma cells) (human) (P11836 whole entry): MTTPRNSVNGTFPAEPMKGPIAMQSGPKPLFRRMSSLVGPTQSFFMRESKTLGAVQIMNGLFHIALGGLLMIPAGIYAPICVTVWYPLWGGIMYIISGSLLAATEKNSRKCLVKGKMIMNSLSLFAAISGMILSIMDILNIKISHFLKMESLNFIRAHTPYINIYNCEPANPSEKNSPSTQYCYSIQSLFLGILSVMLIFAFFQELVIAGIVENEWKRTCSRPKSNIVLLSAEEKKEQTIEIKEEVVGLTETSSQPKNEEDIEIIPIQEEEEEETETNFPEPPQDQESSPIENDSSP

## isotype antibody (negative control)
  EC50 for killing of Raji-luc cells by CIK effector cells, luciferase read-out: 230 ng/mL
